Experimental data taken from US20210155689A1 (SHANGHAI PHARMAEXPLORER, published 2021).
Positions count from the first letter of the chain named.

B1: 105F1E10 mouse-human chimeric antibody (antibody, V domains shown)
VH: EVQLQQSGPELVKPGASVKMSCRASGYTFTDFKMHWMKQSHGKSLEWIGYIAPNNGGTAYNQKFRGKATLTVNESSNTAYMELRSLTSEDSAVYYCVDWDDVDYWGQGTTLTVSS
VL: DIKMTQSPSSMYASLGERVTITCKASQDINSYLSWFQQKSGKSPKTLIYRANRLVDGVPSRFSGSGSGQDYSLTISSLEYEDMGIYYCLQYVEFPLTFGAGTKLELK
notes: also called mAb009-105F1E10
B2: 405B8H3 mouse-human chimeric antibody (antibody, V domains shown)
VH: QVQLQQSGAELVRPGASVTLSCKASGYTFTDYEMHWVKQTPVHGLEWIGATDPETGNSAYNQKFKGKAIMTADKSSSTAYMELRSLTSEDSAVYYCISTGWNDWGQGTSLTVSS
VL: B1 VL with S40P, N52D, V55L, E81G, V92D, L96Y, A100G, L106I
notes: also called mAb103-405B8H3
B3: 409B11E12 mouse-human chimeric antibody (antibody, V domains shown)
VH: B2 VH with P41T, G56S, N57Y, M70L, S98A
VL: B1 VL with I2L, S40P, V55L, V92D, L96Y, A100G, L106I
notes: also called mAb104-409B11E12
B4: 409D4E10 mouse-human chimeric antibody (antibody, V domains shown)
VH: B2 VH with Y27N, G56D, S58T, M70L, A72T, S98T, T99S
VL: B1 VL with S40P, V55L, V92N, L96Y, A100G, L106I
notes: also called mAb112-409D4E10
B5: 556F6B8 mouse-human chimeric antibody (antibody, V domains shown)
VH: RVQLKQSGPGLVQPSQSLSITCTVSGFSLIKYGVHWVRQSPGEGLEWLGVIWRGGITDYNAAFMSRLSITKDNSKSQVFFKMNSLQADDTAIYYCAKWDGPLAMDYWGQGTSVTVSS
VL: DIVMTQSHKFLSTSVGDRVSITCKASQDVGTTVAWYQQKPGQSPKLLIYWASTRHTGVPDRFTGSGSGTDFTLTISNVQSEDLADYFCQQYSSYPYTFGGGTKLEIK
notes: also called mAb123-556F6B8; 556F8B8
B6: 405B8H3 (mouse antibody purified from hybridoma) (antibody, V domains shown)
VH: B2 VH
VL: B1 VL with S40P, N52D, V55L, E81G, V92D, L96Y, A100G, L106I
notes: also called mAb103-405B8H3; 405B81-13
B7: 105F1E10 (mouse antibody purified from hybridoma) (antibody, V domains shown)
VH: B1 VH
VL: B1 VL
notes: also called mAb009-105F1E10
B8: 409D4E10 (mouse antibody purified from hybridoma) (antibody, V domains shown)
VH: B2 VH with Y27N, G56D, S58T, M70L, A72T, S98T, T99S
VL: B1 VL with S40P, V55L, V92N, L96Y, A100G, L106I
notes: also called mAb112-409D4E10
B9: 409B11E12 (mouse antibody purified from hybridoma) (antibody, V domains shown)
VH: B2 VH with P41T, G56S, N57Y, M70L, S98A
VL: B1 VL with I2L, S40P, V55L, V92D, L96Y, A100G, L106I
notes: also called mAb104-409B11E12
B10: 556F6B8 (mouse antibody purified from hybridoma) (antibody, V domains shown)
VH: B5 VH
VL: B5 VL
notes: also called mAb123-556F6B8
B11: 105F1E10 (LAG-3 mouse-human chimeric antibody) (antibody, V domains shown)
VH: B1 VH
VL: B1 VL
B12: 405B8H3 (LAG-3 mouse-human chimeric antibody) (antibody, V domains shown)
VH: B2 VH
VL: B1 VL with S40P, N52D, V55L, E81G, V92D, L96Y, A100G, L106I
notes: also called mouse-human chimeric antibody 405B8H3
B13: 409D4E10 (LAG-3 mouse-human chimeric antibody) (antibody, V domains shown)
VH: B2 VH with Y27N, G56D, S58T, M70L, A72T, S98T, T99S
VL: B1 VL with S40P, V55L, V92N, L96Y, A100G, L106I
B14: 409B11E12 (LAG-3 mouse-human chimeric antibody) (antibody, V domains shown)
VH: B2 VH with P41T, G56S, N57Y, M70L, S98A
VL: B1 VL with I2L, S40P, V55L, V92D, L96Y, A100G, L106I
B15: 556F6B8 (LAG-3 mouse-human chimeric antibody) (antibody, V domains shown)
VH: B5 VH
VL: B5 VL
notes: also called 556F8B8

Molecular target: T1, monkey LAG-3 on cells (HEK293-cLAG-3 stable cell line) (monkey, UniProt P18627 24-525 (human entry))
T1 construct: Full-length monkey (Chinese monkey) LAG-3 gene expressed on HEK293 cells
T1 chain: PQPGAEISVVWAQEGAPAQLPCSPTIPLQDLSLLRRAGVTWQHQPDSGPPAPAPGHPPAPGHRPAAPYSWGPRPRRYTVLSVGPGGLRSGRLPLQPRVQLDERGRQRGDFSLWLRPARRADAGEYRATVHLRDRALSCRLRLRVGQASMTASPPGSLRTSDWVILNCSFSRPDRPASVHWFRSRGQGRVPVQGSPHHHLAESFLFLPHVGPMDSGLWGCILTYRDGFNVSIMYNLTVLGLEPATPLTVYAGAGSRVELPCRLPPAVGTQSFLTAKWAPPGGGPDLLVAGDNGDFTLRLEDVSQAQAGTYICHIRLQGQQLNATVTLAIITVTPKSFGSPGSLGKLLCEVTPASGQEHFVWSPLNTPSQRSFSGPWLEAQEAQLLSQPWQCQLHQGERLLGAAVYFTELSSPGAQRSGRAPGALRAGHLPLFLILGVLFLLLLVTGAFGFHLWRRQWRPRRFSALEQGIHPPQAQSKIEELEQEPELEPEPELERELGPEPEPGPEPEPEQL
Experiment: FACS, HEK293-cLAG-3, antibody 0.320 nM
Source text: (§1) The pIRES plasmid with the monkey-derived full-length gene was transfected into the HEK293 cell line to construct a HEK293 stable cell line containing monkey LAG-3 (herein referred to as HEK293-cLAG-3 stable cell line). The HEK293-hLAG-3 stable cell line and HEK293-cLAG-3 stable cell line were expanded in a T-75 cell culture flask to a 90% confluence. The medium was aspirated, and the cells were washed with HBSS (Hanks' Balanced Salt Solution) 1-2 times, then treated with a enzyme-free cell dissociation fluid (Versene solution: Life technology) and the cells were collected. The cells were washed with HBSS buffer for 1-2 times. After counted, the cells were diluted with HBSS to 1-2×10⁶ cells per ml, added with 1% goat serum blocking solution, incubated on ice for 20-30 minutes, and then washed with HBSS for 2 times by centrifugation. The collected cells were suspended in the FACS buffer (HBSS+1% BSA) to 2×10⁶ cells/ml, added as 100 microliters per well to a 96-well FACS reaction plate, added with 100 microliters per well of the antibody sample to be tested, incubated on ice for 1-2 hours. The plate was washed twice with the FACS buffer by centrifugation, added with 100 microliters of fluorescent (Alexa 488)-labeled secondary antibodies per well, and incubated on ice for 0.5-1.0 hours. The plate was washed 2-3 times with FACS buffer by centrifugation, added with 100 μl fixative solution (4% Paraformaldehyde) per well to suspend the cells. 5-10 minutes later, it was washed 1-2 times with FACS buffer by centrifugation. The cells were suspended with 100 microliters of FACS buffer, FACS (FACSCalibur, BD) was used for detection and the results were analyzed.

For B1, which Mean fluorescence intensity is on record?
Its Mean fluorescence intensity is 5.72.

With B2 as the binder, how does the Mean fluorescence intensity read?
The Mean fluorescence intensity was 10.3.

How did the Mean fluorescence intensity turn out when B3 was run?
Its Mean fluorescence intensity is 11.6.

For B4, which Mean fluorescence intensity is on record?
Its Mean fluorescence intensity is 8.96.

How did the Mean fluorescence intensity turn out when B5 was run?
Its Mean fluorescence intensity is 8.37.

Molecular target: T2, monkey LAG-3 (full length, on the cell surface) (monkey, UniProt P18627 24-525 (human entry))
T2 construct: also called HEK293-cLAG-3; monkey LAG-3 protein on the cell surface
T2 chain: T1 chain
Experiment: FACS, HEK293-cLAG-3; 0.320 nM
Source text: as §1

For B6, which Mean fluorescence intensity is on record?
The Mean fluorescence intensity was 8 MFI.

With B7 as the binder, how does the Mean fluorescence intensity read?
Its Mean fluorescence intensity is 6.6 MFI.

With B8 as the binder, how does the Mean fluorescence intensity read?
Its Mean fluorescence intensity is 11.5 MFI.

For B9, which Mean fluorescence intensity is on record?
The Mean fluorescence intensity was 8 MFI.

For B10, which Mean fluorescence intensity is on record?
The Mean fluorescence intensity was 9.8 MFI.

Molecular target: T3, mouse LAG-3 protein with hFc tag (mLAG-3-hFc protein) (mouse; human, UniProt Q61790 24-442)
T3 construct: Made in HEK293 cells; also called mouse LAG-3 extracellular domain protein; not shown: human IgG Fc fragment (hFc) of the pCpC vector
T3 sequence: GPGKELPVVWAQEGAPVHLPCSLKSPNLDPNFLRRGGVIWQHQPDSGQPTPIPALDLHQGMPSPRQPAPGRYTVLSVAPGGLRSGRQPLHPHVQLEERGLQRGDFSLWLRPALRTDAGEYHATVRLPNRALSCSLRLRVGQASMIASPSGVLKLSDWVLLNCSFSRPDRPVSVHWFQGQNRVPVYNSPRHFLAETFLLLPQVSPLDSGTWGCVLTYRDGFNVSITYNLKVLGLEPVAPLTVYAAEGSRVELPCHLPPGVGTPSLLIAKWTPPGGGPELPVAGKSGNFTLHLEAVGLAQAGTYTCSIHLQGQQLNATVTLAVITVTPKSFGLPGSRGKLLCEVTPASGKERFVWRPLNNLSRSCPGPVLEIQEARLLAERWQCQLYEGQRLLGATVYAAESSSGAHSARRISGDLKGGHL
Experiment: ELISA, mLAG-3-hFc coated; 0.0667 nM
Experimental: The plate was sealed with plastic film and incubated overnight at 4° C. The plate was washed 2 times with the plate washing solution (PBS+0.01% Tween20) on the next day, and added with the blocking solution (PBS+0.01% Tween20+1% BSA) and blocked at room temperature for 1-2 hours. The blocking solution was poured out, and the plate was added with 50-100 μl of the antibody sample to be tested to each well, incubated at 37° C. for 1-2 hours, and washed 2-3 times with a plate washing solution (PBS+0.01% Tween20). HRP (horseradish peroxidase) labeled secondary antibody was added, and the plate was incubated at 37° C. for 1-2 hours, and washed 2-3 times with a plate washing solution (PBS+0.01% Tween20). 100 μl of TMB substrate was added to each well. After incubated at room temperature for 15-30 minutes, the plate was added with 100 μl of stop solution (1.0N HCl) to each well.

Which OD450 does the source give for B11 here?
The OD450 was 0.08 OD450.

For B12, which OD450 is on record?
The OD450 was 0.08 OD450.

How did the OD450 turn out when B13 was run?
The OD450 was 0.13 OD450.

Which OD450 does the source give for B14 here?
The OD450 was 0.09 OD450.

B15 was tested. Which OD450 did it give?
The OD450 was 0.11 OD450.

Molecular target: T4, human LAG-3 (full length, on the cell surface) (human, UniProt P18627 23-525)
T4 construct: Full-length human LAG-3 expressed on cells; also called HEK293-hLAG-3; HEK293 cells transfected with LAG-3 gene
T4 sequence: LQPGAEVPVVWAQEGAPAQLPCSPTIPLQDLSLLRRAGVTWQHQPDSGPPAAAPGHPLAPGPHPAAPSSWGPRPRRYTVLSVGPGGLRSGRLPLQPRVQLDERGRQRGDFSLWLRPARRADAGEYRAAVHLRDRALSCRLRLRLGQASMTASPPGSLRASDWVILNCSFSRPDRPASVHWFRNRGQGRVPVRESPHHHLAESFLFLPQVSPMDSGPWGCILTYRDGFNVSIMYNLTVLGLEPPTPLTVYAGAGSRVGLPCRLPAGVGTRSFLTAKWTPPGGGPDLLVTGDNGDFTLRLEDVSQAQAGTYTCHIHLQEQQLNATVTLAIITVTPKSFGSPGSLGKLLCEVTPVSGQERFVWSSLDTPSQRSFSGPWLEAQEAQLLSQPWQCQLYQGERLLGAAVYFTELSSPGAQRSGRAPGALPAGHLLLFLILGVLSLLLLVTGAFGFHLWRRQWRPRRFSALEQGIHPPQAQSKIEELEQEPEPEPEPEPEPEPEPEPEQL
Experiment: FACS, HEK293-hLAG-3; 0.064 nM
Source text: as §1

For B6, which Mean fluorescence intensity is on record?
The Mean fluorescence intensity was 8.7 MFI.

How did the Mean fluorescence intensity turn out when B7 was run?
The Mean fluorescence intensity was 8.6 MFI.

For B8, which Mean fluorescence intensity is on record?
The Mean fluorescence intensity was 4.9 MFI.

With B9 as the binder, how does the Mean fluorescence intensity read?
Its Mean fluorescence intensity is 5 MFI.

For B10, which Mean fluorescence intensity is on record?
The Mean fluorescence intensity was 6.8 MFI.
